Laboratory results from paper PMC5371648.

Target: modern EF-Tu (elongation factor Tu) from E. coli (E. coli) (UniProt P0CE47)
Experiment: ITC; Microcal ITC200; 0.6-1 mM NusA in the syringe titrated (2.5 uL injections, 120-s intervals) into 10 uM EF-Tu in the cell; Buffer C (20 mM Tris-HCl pH 7.5, 50 mM MgCl2, 100 mM KCl)

wild-type NusA protein from E. coli (from UniProt P0AFF6 1-495) (natural protein)
Kd: 14.6 µM
